Where a chain is given by its changes, count along the chain named. Where two headings read alike, the source gives them in different places.
B1: h4-3-13 (antibody, human IgG1, kappa, V domains shown)
VH: EVQLVQSGPEVKKPGASVKVSCKASGFTFTDYVIGWVRQAPGQGLEWIGEIYLGSGTIYYTEKFKGRVTMTADTSTSTAYMELSSLRSEDTAVYYCARGSIFPFDYWGQGTLVTVSS
VL: DIQLTQSPSSLSASVGDRVTITCSASSSVSYMYWYQQKPGKAPKLLIYDTSTLQSGVPSRFSGSGSGTDFTLTISSLQPEDFATYYCQQWSSYPYTFGQGTKLEIKR
B2: h4-3-14 (antibody, human IgG1, kappa, V domains shown)
VH: B1 VH with T61A
VL: B1 VL
B3: h4-3-15 (antibody, human IgG1, kappa, V domains shown)
VH: B1 VH with E62Q
VL: B1 VL
B4: h4-3-16 (antibody, human IgG1, kappa, V domains shown)
VH: B1 VH with P103Y
VL: B1 VL
B5: h4-3-17 (antibody, human IgG1, kappa, V domains shown)
VH: B1 VH
VL: B1 VL with Q54A, S91N
B6: h4-3-18 (antibody, human IgG1, kappa, V domains shown)
VH: B1 VH with T61A
VL: B1 VL with Q54A, S91N
B7: h4-3-19 (antibody, human IgG1, kappa, V domains shown)
VH: B1 VH with E62Q
VL: B1 VL with Q54A, S91N
B8: h4-3-20 (antibody, human IgG1, kappa, V domains shown)
VH: B1 VH with P103Y
VL: B1 VL with Q54A, S91N
B9: h11-4-1 (antibody, human IgG1, kappa, V domains shown)
VH: QVQLVQSGAEVKKPGASVKVSCKASGYTFTSYWINWVRQAPGQGLEWMGNIYPSNSYTNYNQKFKDRVTMTRDTSTSTVYMELSSLRSEDTAVYYCARYRSDGFAYWGQGTLVTVSS
VL: EIVLTQSPATLSLSPGERATLSCRASQNIGTSIHWYQQKPGQAPRLLIYFASESISGIPARFSGSGSGTDFTLTISSLEPEDFAVYYCQQSNSWPFTFGGGTKVEIKR
notes: also called CDR grafted antibody 11-4
B10: h11-4-2 (antibody, human IgG1, kappa, V domains shown)
VH: B9 VH with A97S
VL: B9 VL
B11: h11-4-3 (antibody, human IgG1, kappa, V domains shown)
VH: B9 VH with R98S
VL: B9 VL
B12: h11-4-4 (antibody, human IgG1, kappa, V domains shown)
VH: B9 VH with Q1E, A97S, R98S
VL: B9 VL
B13: h11-4-5 (antibody, human IgG1, kappa, name in Kabat numbering, V domains shown)
VH: B9 VH
VL: B9 VL with Y49E
B14: h11-4-6 (antibody, human IgG1, kappa, name in Kabat numbering, V domains shown)
VH: B9 VH with A97S
VL: B9 VL with Y49E
B15: h11-4-7 (antibody, human IgG1, kappa, name in Kabat numbering, V domains shown)
VH: B9 VH with R98S
VL: B9 VL with Y49E
B16: h11-4-8 (antibody, human IgG1, kappa, name in Kabat numbering, V domains shown)
VH: B9 VH with Q1E, A97S, R98S
VL: B9 VL with Y49E
B17: h11-4-9 (antibody, human IgG1, kappa, name in Kabat numbering, V domains shown)
VH: B9 VH with Q1E, A97S, R98S
VL: B9 VL with H34E, Y49E
B18: h11-4-10 (antibody, human IgG1, kappa, name in Kabat numbering, V domains shown)
VH: B9 VH with Q1E, A97S, R98S, D102E
VL: B9 VL with H34E, Y49E
B19: h11-4-11 (antibody, human IgG1, kappa, name in Kabat numbering, V domains shown)
VH: B9 VH with Q1E, A97S, R98S, D102G
VL: B9 VL with H34E, Y49E
B20: h11-4-12 (antibody, human IgG1, kappa, name in Kabat numbering, V domains shown)
VH: B9 VH with Q1E, A97S, R98S, G103A
VL: B9 VL with H34E, Y49E
B21: h11-4-13 (antibody, human IgG1, kappa, name in Kabat numbering, V domains shown)
VH: B9 VH with Q1E, A97S, R98S
VL: B9 VL with H34S, Y49E
B22: h11-4-14 (antibody, human IgG1, kappa, name in Kabat numbering, V domains shown)
VH: B9 VH with Q1E, A97S, R98S, D102E
VL: B9 VL with H34S, Y49E
B23: h11-4-15 (antibody, human IgG1, kappa, name in Kabat numbering, V domains shown)
VH: B9 VH with Q1E, A97S, R98S, D102G
VL: B9 VL with H34S, Y49E
B24: h11-4-16 (antibody, human IgG1, kappa, name in Kabat numbering, V domains shown)
VH: B9 VH with Q1E, A97S, R98S, G103A
VL: B9 VL with H34S, Y49E
B25: h11-4-17 (antibody, human IgG1, kappa, name in Kabat numbering, V domains shown)
VH: B9 VH with Q1E, A97S, R98S
VL: B9 VL with H34A, Y49E
B26: h11-4-18 (antibody, human IgG1, kappa, name in Kabat numbering, V domains shown)
VH: B9 VH with Q1E, A97S, R98S, D102E
VL: B9 VL with H34A, Y49E
B27: h11-4-19 (antibody, human IgG1, kappa, name in Kabat numbering, V domains shown)
VH: B9 VH with Q1E, A97S, R98S, D102G
VL: B9 VL with H34A, Y49E
B28: h11-4-20 (antibody, human IgG1, kappa, name in Kabat numbering, V domains shown)
VH: B9 VH with Q1E, A97S, R98S, G103A
VL: B9 VL with H34A, Y49E

What was measured:
[1] = biological target: T1, recombinant human Trop-2-his protein (ACCESSION NO.: NP_002344.2, AA 1-274) (human, UniProt P09758 27-274); assay: BLI, antibody on AHC sensor, Trop-2-his 60 nM
T1 construct: range 27-274; also called recombinant human Trop-2 protein; recombinant human Trop-2 extracellular domain; not shown: his tag
T1 sequence (looked up): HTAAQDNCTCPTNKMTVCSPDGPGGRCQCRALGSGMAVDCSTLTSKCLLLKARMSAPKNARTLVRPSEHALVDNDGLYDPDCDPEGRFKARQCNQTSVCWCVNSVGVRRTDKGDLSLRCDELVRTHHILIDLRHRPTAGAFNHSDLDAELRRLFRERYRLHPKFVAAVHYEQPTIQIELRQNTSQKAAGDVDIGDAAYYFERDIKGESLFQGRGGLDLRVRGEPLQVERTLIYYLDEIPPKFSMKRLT
Experimental: (§1) 5-6 days after cell transfection, culture supernatants were purified through ProA affinity chromatography column to obtain different humanized antibodies. Affinities of the obtained antibodies were determined by an assay including capturing Fc fragments of the antibodies with anti-human IgG Fc capture (AHC) biosensors using Octet QKe system instrument from Fortebio. For the assay, each of the humanized antibodies and control antibody Sacituzumab was diluted to 4 μg/ml in PBS, and was allowed to flow through the surface of an AHC biosensor (Cat.: 18-0015, PALL) for 120 s. Recombinant human Trop-2-his protein (ACCESSION NO.: NP_002344.2, AA 1-274) was used as a mobile phase, and its concentration was 60 nM. The binding time was 100 s and the dissociation time was 300 s. When the assay was finished, data from which the response values of blank control had been deducted were fitted to a 1:1 Langmuir binding model using software, and then kinetic constants for antigen-antibody binding were calculated.
Affinities of the antibodies obtained from the combinations of mutants of murine antibody 23-12, chimeric antibody ch4-3 and control antibody Sacituzumab to recombinant human Trop-2-his protein were determined by ForteBio (Table 8).

[2] = biological target: T1, recombinant human Trop-2-his protein …; assay: BLI, antibody on AHC sensor, Trop-2-his 60 nM; remark: listed apart in the source
Experimental: as §1
Affinities of the antibodies obtained from the combinations of mutants of murine antibody 11-4, chimeric antibody ch11-4 and control antibody Sacituzumab to recombinant human Trop-2-his protein were determined by ForteBio (Table 11).

| Binder | Kd [1] | Kd [2] |
| --- | --- | --- |
| B1 | 0.281 nM |  |
| B2 | 0.571 nM |  |
| B3 | 0.687 nM |  |
| B4 | 1.53 nM |  |
| B5 | 0.542 nM |  |
| B6 | 0.671 nM |  |
| B7 | 0.599 nM |  |
| B8 | 0.892 nM |  |
| B9 |  | 2.16 nM |
| B10 |  | 0.991 nM |
| B11 |  | 0.868 nM |
| B12 |  | 0.811 nM |
| B13 |  | 1.08 nM |
| B14 |  | 0.952 nM |
| B15 |  | 0.803 nM |
| B16 |  | 0.222 nM |
| B17 |  | 0.301 nM |
| B18 |  | 0.351 nM |
| B19 |  | 0.375 nM |
| B20 |  | 0.282 nM |
| B21 |  | 0.211 nM |
| B22 |  | 0.352 nM |
| B23 |  | 0.389 nM |
| B24 |  | 0.231 nM |
| B25 |  | 0.238 nM |
| B26 |  | 0.394 nM |
| B27 |  | 0.254 nM |
| B28 |  | 0.21 nM |

Reference: patent US20240092930A1 (MABWELL SHANGHAI BIOSCIENCE, published 2024)
